Earlier results, collected in PMC12990809.

Experiments:
Assay in all cases: pulldown
Settings in all cases: 20 nM protein, 1.5 uM RNA pool; 20 mM HEPES pH 7.8, 70 mM KCl, 10 mM NaCl, 10% glycerol, 2 mM DTT, 0.1 ug/uL BSA; 30 min, 4 C (protocol of this paper; not …); cited from earlier work
PABPC3 (Homo sapiens) = PABPC3 (Homo sapiens) (UniProt Q9H361)
[1] = target: mub (Drosophila melanogaster) (UniProt M9NGB9)
RBM42 (Homo sapiens) = target: T1, RBM42 (Homo sapiens) (UniProt Q9BTD8)
T1 sequence: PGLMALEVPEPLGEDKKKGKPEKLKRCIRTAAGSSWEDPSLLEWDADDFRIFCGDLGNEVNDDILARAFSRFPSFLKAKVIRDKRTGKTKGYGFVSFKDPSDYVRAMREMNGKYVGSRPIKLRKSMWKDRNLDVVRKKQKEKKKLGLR

FXR1 (Homo sapiens) = FXR1 (Homo sapiens) (UniProt P51114)
FXR1 (Homo sapiens), sequence (P51114 170-401): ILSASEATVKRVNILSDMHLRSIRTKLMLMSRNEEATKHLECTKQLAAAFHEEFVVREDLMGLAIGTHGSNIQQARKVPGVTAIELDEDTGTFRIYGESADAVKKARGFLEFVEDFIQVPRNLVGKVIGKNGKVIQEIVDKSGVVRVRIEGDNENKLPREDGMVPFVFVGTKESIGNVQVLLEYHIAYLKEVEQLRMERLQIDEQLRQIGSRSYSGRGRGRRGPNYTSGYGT

[2] = target: T2, CG2931 (Drosophila melanogaster) (UniProt Q7JZA8)
T2 sequence: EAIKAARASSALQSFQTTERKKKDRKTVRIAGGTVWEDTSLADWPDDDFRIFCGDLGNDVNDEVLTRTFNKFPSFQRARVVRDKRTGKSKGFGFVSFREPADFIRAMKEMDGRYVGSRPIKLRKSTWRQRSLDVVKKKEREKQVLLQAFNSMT

PABPN1 (Homo sapiens) = target: T3, PABPN1 (Homo sapiens) (UniProt Q86U42)
T3 sequence: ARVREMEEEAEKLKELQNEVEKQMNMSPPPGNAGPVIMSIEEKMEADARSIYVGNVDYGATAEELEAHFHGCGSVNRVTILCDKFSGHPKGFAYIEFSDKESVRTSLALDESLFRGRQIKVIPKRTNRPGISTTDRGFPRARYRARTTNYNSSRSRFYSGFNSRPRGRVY

[3] = target: T4, qkr58E-1 (Drosophila melanogaster) (UniProt Q7JVR3)
T4 sequence: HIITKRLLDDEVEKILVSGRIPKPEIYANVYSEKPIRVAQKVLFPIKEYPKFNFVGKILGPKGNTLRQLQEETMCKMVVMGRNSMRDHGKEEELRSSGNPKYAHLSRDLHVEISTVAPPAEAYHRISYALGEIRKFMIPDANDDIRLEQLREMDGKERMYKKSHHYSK

RBMS1 (Homo sapiens) = target: T5, RBMS1 (Homo sapiens) (UniProt P29558)
T5 sequence: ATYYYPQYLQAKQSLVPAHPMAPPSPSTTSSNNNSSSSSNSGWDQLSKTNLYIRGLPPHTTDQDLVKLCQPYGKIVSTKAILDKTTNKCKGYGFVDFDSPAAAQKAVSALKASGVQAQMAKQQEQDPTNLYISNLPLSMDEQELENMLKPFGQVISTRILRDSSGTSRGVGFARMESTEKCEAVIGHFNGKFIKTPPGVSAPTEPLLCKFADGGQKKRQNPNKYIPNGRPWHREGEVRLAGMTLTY

ESRP2 (Homo sapiens) = target: T6, ESRP2 (Homo sapiens) (UniProt Q9H6T0)
T6 sequence: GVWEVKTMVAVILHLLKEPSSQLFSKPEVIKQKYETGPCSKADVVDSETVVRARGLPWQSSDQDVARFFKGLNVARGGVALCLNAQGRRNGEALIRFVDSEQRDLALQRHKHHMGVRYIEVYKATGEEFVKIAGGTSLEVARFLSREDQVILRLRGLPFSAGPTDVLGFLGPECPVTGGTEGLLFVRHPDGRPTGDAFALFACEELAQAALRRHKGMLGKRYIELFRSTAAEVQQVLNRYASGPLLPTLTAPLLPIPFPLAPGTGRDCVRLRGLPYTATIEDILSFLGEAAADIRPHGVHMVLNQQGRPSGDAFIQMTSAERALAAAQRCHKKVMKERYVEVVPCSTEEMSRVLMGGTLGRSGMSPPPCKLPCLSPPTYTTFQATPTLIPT

CPEB2 (Homo sapiens) = target: T7, CPEB2 (Homo sapiens) (UniProt Q7Z5Q1)
T7 sequence: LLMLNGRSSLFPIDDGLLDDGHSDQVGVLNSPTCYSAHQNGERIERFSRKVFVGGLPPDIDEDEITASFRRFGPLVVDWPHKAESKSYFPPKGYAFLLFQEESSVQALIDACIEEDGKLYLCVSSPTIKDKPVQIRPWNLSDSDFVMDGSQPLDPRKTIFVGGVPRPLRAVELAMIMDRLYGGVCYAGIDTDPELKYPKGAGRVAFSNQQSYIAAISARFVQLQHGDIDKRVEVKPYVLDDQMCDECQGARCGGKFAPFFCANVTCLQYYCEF

[4] = target: pAbp (Drosophila melanogaster) (UniProt P21187)
pAbp (Drosophila melanogaster), sequence (P21187 1-408): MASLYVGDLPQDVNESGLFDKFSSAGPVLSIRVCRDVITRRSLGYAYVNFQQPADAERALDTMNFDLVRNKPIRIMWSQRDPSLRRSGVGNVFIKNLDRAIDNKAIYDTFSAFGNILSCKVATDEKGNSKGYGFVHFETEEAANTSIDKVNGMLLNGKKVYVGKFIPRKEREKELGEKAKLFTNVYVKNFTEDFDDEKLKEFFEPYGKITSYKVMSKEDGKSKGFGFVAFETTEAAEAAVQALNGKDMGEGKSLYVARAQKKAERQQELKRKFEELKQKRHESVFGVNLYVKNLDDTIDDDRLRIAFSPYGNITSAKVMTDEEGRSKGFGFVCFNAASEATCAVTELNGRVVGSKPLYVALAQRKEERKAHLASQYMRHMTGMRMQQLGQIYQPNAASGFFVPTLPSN

PABPC1 (Homo sapiens) = PABPC1 (Homo sapiens) (UniProt P11940)
PABPC1 (Homo sapiens), sequence (P11940 1-414): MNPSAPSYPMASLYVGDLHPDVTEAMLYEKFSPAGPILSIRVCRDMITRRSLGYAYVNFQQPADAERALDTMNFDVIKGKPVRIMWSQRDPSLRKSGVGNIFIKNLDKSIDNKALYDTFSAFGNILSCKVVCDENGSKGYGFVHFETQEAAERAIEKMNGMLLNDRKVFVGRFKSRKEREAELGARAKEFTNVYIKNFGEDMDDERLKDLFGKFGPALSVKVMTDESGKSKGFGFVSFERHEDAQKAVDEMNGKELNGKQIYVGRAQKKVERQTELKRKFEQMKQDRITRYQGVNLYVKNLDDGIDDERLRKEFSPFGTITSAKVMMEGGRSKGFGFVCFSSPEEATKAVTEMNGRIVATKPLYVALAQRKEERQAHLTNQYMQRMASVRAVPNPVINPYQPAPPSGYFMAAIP

CNOT4 (Homo sapiens) = target: T8, CNOT4 (Homo sapiens) (UniProt O95628)
T8 sequence: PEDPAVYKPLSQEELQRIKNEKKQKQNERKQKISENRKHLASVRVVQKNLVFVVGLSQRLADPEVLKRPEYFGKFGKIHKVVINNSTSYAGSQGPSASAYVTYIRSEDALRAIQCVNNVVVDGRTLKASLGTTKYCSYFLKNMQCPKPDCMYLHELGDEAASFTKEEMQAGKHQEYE

[5] = target: T9, B52 (Drosophila melanogaster) (UniProt P26686)
T9 sequence: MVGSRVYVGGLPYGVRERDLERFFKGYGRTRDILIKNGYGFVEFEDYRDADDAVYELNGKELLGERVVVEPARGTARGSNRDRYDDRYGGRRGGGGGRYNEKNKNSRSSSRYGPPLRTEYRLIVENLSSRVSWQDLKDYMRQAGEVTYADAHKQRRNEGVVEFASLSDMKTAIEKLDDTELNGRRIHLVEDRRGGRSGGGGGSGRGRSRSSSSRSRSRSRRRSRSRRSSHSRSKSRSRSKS

HNRNPH2 (Homo sapiens) = target: T10, HNRNPH2 (Homo sapiens) (UniProt P55795)
T10 sequence: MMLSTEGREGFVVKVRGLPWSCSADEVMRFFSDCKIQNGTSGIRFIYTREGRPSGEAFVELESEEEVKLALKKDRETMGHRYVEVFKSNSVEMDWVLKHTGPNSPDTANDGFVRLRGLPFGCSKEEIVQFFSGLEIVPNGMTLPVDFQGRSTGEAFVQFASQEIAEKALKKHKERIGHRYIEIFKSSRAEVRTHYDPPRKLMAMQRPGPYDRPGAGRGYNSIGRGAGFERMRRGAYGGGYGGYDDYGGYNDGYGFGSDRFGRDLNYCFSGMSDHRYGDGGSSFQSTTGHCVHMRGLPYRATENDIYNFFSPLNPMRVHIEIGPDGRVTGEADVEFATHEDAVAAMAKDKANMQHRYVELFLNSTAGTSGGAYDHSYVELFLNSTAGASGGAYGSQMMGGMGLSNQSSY

[6] = target: T11, rin (Drosophila melanogaster) (UniProt A0ACM8PZ16)
T11 sequence: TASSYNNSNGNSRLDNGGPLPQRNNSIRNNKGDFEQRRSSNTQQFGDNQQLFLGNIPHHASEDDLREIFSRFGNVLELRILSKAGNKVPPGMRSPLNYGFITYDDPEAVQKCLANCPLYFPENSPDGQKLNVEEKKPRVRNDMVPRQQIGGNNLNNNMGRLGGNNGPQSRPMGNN

[7] = target: T12, CG7804 (Drosophila melanogaster) (UniProt Q7JW23)
T12 sequence: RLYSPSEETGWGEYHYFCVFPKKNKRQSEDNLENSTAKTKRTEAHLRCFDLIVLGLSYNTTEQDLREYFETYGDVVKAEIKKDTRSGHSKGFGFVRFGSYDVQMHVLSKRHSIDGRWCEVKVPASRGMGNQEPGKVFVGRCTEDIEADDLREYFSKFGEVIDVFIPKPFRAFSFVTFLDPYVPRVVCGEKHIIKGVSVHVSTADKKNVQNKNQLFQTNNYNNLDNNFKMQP

A1CF (Homo sapiens) = target: T13, A1CF (Homo sapiens) (UniProt Q9NQ94)
T13 sequence: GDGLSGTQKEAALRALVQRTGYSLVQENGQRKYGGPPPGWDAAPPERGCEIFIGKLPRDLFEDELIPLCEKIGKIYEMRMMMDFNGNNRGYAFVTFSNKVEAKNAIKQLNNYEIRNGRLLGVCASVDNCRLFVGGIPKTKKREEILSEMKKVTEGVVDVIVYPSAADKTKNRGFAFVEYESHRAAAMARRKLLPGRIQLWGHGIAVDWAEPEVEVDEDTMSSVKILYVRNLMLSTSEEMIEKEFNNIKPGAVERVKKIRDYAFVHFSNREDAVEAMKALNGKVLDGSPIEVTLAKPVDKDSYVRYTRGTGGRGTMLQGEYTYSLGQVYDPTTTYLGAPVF

[8] = target: T14, CG5213 (Drosophila melanogaster) (UniProt Q7JY27)
T14 sequence: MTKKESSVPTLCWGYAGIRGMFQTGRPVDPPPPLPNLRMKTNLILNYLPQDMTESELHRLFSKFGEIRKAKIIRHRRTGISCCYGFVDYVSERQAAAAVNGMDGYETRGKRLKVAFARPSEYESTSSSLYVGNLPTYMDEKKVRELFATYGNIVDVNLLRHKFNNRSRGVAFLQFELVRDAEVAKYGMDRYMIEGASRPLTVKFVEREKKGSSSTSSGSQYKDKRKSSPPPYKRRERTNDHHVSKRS

[9] = target: T15, papi (Drosophila melanogaster) (UniProt Q9VQ91)
T15 sequence: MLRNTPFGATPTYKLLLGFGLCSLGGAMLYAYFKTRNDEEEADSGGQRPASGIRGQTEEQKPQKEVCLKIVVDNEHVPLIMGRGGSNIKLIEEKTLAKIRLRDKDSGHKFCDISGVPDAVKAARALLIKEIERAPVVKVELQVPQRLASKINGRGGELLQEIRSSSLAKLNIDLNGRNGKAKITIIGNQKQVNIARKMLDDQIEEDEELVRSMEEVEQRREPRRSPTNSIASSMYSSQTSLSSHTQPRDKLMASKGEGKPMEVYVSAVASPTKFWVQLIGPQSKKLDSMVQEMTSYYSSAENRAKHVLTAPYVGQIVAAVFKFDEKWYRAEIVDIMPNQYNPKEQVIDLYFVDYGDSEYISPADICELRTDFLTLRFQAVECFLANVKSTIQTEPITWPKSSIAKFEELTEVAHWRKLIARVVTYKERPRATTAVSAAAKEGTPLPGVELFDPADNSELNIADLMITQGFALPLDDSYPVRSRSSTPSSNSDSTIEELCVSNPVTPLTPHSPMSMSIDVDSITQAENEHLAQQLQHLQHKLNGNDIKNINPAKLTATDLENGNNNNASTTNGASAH

[10] = target: T16, snf (Drosophila melanogaster) (UniProt P43332)
T16 sequence: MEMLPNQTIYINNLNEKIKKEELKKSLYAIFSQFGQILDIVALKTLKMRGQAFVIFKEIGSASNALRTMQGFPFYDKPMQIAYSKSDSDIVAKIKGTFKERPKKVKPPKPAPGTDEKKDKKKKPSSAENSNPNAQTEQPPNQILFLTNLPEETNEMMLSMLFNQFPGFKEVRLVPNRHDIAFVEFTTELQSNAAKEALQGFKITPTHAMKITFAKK

CPEB4 (Homo sapiens) = target: T17, CPEB4 (Homo sapiens) (UniProt Q17RY0)
T17 sequence: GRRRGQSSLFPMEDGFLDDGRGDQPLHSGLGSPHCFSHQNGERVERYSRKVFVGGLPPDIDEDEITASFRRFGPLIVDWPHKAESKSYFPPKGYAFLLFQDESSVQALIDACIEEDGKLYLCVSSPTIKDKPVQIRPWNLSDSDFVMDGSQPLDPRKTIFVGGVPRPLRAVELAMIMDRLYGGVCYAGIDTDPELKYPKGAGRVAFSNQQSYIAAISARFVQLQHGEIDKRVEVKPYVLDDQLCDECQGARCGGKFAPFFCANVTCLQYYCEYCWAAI

RALY (Homo sapiens) = RALY (Homo sapiens) (UniProt Q9UKM9)
RALY (Homo sapiens), sequence (Q9UKM9 1-136): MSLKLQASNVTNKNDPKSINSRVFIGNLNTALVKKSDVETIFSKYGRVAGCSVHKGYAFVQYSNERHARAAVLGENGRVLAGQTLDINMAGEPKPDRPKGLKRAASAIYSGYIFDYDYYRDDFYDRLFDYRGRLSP

PABPC3 (Homo sapiens), sequence (Q9H361 1-414): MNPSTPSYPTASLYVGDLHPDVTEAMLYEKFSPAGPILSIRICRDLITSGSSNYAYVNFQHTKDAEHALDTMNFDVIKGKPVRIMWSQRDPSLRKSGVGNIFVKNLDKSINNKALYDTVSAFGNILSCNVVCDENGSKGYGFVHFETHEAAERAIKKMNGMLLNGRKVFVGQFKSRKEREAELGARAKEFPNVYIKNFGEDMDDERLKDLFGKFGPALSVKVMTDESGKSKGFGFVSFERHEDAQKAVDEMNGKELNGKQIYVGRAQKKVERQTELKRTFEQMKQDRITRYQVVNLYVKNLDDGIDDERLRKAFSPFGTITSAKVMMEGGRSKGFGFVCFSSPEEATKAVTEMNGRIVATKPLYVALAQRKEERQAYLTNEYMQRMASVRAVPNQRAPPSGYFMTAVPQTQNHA
mub (Drosophila melanogaster), sequence (M9NGB9 entry or part of it): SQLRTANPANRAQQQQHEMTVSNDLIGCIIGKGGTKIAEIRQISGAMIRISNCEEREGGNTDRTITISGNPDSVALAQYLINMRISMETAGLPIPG

AAAACC [RNAcompete motif RNCMPT00153]
binding signal (z-score (mean of top ten 7-mers)) (PABPC3 (Homo sapiens)): 8.16

AACCCU [RNAcompete motif RNCMPT00137]
binding signal (z-score (mean of top ten 7-mers)) [1]: 10.1

AACUANG [RNAcompete motif RNCMPT00151]
binding signal (z-score (mean of top ten 7-mers)) (RBM42 (Homo sapiens)): 11.2

AAUGACAA [RNAcompete motif RNCMPT00161]
binding signal (z-score (mean of top ten 7-mers)) (FXR1 (Homo sapiens)): 6.01

ACUAAG [RNAcompete motif RNCMPT00147]
binding signal (z-score (mean of top ten 7-mers)) [2]: 11.6

AGAAGA [RNAcompete motif RNCMPT00157]
binding signal (z-score (mean of top ten 7-mers)) (PABPN1 (Homo sapiens)): 11.4

ANAAUAA [RNAcompete motif RNCMPT00142]
binding signal (z-score (mean of top ten 7-mers)) [3]: 6.18

AUAUAG [RNAcompete motif RNCMPT00152]
binding signal (z-score (mean of top ten 7-mers)) (RBMS1 (Homo sapiens)): 7.69

AUGGGGA [RNAcompete motif RNCMPT00150]
binding signal (z-score (mean of top ten 7-mers)) (ESRP2 (Homo sapiens)): 7.36

CCUUUUU [RNAcompete motif RNCMPT00012]
binding signal (z-score (mean of top ten 7-mers)) (CPEB2 (Homo sapiens)): 10.8

GAAAA [RNAcompete motif RNCMPT00139]
binding signal (z-score (mean of top ten 7-mers)) [4]: 13

GAAAAA [RNAcompete motif RNCMPT00155]
binding signal (z-score (mean of top ten 7-mers)) (PABPC1 (Homo sapiens)): 11.3

GACAGA [RNAcompete motif RNCMPT00156]
binding signal (z-score (mean of top ten 7-mers)) (CNOT4 (Homo sapiens)): 19

GGAGGGG [RNAcompete motif RNCMPT00134]
binding signal (z-score (mean of top ten 7-mers)) [5]: 7.73

GGGAGGG [RNAcompete motif RNCMPT00160]
binding signal (z-score (mean of top ten 7-mers)) (HNRNPH2 (Homo sapiens)): 16.8

GGGUGGG [RNAcompete motif RNCMPT00138]
binding signal (z-score (mean of top ten 7-mers)) [6]: 9.16

GNGUG [RNAcompete motif RNCMPT00146]
binding signal (z-score (mean of top ten 7-mers)) [7]: 8.15

UAAUUG [RNAcompete motif RNCMPT00001]
binding signal (z-score (mean of top ten 7-mers)) (A1CF (Homo sapiens)): 12.6

UACUUU [RNAcompete motif RNCMPT00010]
binding signal (z-score (mean of top ten 7-mers)) [8]: 11.8

UNUGUGU [RNAcompete motif RNCMPT00011]
binding signal (z-score (mean of top ten 7-mers)) [9]: 17.7

UUGCACA [RNAcompete motif RNCMPT00145]
binding signal (z-score (mean of top ten 7-mers)) [10]: 14

UUUUUU [RNAcompete motif RNCMPT00158]
binding signal (z-score (mean of top ten 7-mers)) (CPEB4 (Homo sapiens)): 14.8

UUUUUU [RNAcompete motif RNCMPT00159]
binding signal (z-score (mean of top ten 7-mers)) (RALY (Homo sapiens)): 16.1
